Measured values reported in paper PMC10804987.

Molecular target: PRRSV-2 nucleocapsid (N) protein with Myc tag
Test: ELISA
Conditions: mutated N-His as coating antigen; N-Myc added; parent: est. 0.97; read off a plot

| Substance | response |
| --- | --- |
| PRRSV-2 nucleocapsid (N) protein with His tag T108A | 1 OD450nm |
| PRRSV-2 nucleocapsid (N) protein with His tag S105A | 0.28 OD450nm |
| PRRSV-2 nucleocapsid (N) protein with His tag S105A; T108A; Q109A | 0.2 OD450nm |
| PRRSV-2 nucleocapsid (N) protein with His tag Q109A | 0.7 OD450nm |
